Laboratory results taken from the Immune Epitope Database (IEDB).

What was measured:
HLA-A*02:03 = experiment: IEDB peptide-MHC binding, purified MHC/competitive/fluorescence; filed as Kd, often an IC50 or EC50 that approximates it; ≥ and ≤ were set here for values at or beyond the usual limits of such assays
HLA-B*18:01 [1] = experiment: as above
HLA-A*24:03 [2] = experiment: as above
HLA-A*03:01 [3] = experiment: as above
HLA-A*02:01 [4] = experiment: as above
HLA-B*27:03 = experiment: as above
HLA-A*02:12 [5] = experiment: as above
HLA-A*23:01 = experiment: as above
HLA-B*39:01 = experiment: as above
HLA-A*02:19 [6] = experiment: as above
HLA-B*51:01 = experiment: as above
HLA-A*02:11 [7] = experiment: as above
HLA-A*02:16 [8] = experiment: as above; settings: source organism: Burkholderia vietnamiensis G4
HLA-B*46:01 [9] = experiment: as above
HLA-A*29:02 = experiment: as above
HLA-B*15:01 [10] = experiment: as above
HLA-A*26:01 [11] = experiment: as above
HLA-B*57:01 = experiment: as above
HLA-A*69:01 [12] = experiment: as above; settings: source organism: Bacillus anthracis str. Ames
HLA-A*68:02 = experiment: as above; settings: source organism: Bacillus anthracis str. Ames
HLA-B*15:17 = experiment: as above; settings: source organism: Bacillus anthracis str. Ames
HLA-A*02:50 = experiment: as above
HLA-A*69:01 [13] = experiment: IEDB peptide-MHC binding, purified MHC/direct/fluorescence; filed as Kd, often an IC50 or EC50 that approximates it; ≥ and ≤ were set here for values at or beyond the usual limits of such assays
HLA-A*02:06 = experiment: as above; settings: source organism: Giardia lamblia ATCC 50803
HLA-B*18:01 [14] = experiment: as above; settings: source organism: Giardia lamblia ATCC 50803
HLA-B*40:01 = experiment: as above
HLA-A*03:01 [15] = experiment: as above
HLA-A*02:01 [16] = experiment: as above
HLA-A*24:02 = experiment: as above; settings: source organism: Giardia lamblia ATCC 50803
HLA-A*02:12 [17] = experiment: as above; settings: source organism: Giardia lamblia ATCC 50803
HLA-A*01:01 = experiment: as above
HLA-B*08:02 = experiment: as above; settings: source organism: Giardia lamblia ATCC 50803
HLA-B*44:02 = experiment: as above; settings: source organism: Giardia lamblia ATCC 50803
HLA-A*02:19 [18] = experiment: as above; settings: source organism: Giardia lamblia ATCC 50803
HLA-A*11:01 = experiment: as above
HLA-A*31:01 = experiment: as above
HLA-A*02:11 [19] = experiment: as above; settings: source organism: Giardia lamblia ATCC 50803
HLA-A*02:16 [20] = experiment: as above; settings: source organism: Giardia lamblia ATCC 50803
HLA-B*46:01 [21] = experiment: as above; settings: source organism: Giardia lamblia ATCC 50803
HLA-B*07:02 = experiment: as above
HLA-B*27:05 = experiment: as above
HLA-B*15:01 [22] = experiment: as above
HLA-A*26:01 [23] = experiment: as above
HLA-B*58:01 = experiment: as above
HLA-A*24:03 [24] = experiment: as above; settings: source organism: Klebsiella pneumoniae
HLA-B*08:01 = experiment: as above; settings: source organism: Klebsiella pneumoniae
[25] = source organism: Burkholderia vietnamiensis G4
[26] = source organism: Bacillus anthracis str. Ames
[27] = source organism: Giardia lamblia ATCC 50803
[28] = source organism: Klebsiella pneumoniae

Question: With GVNDTEAHA as the sequence, how does the Kd (HLA-A*02:03; [25]) read?
Answer: Its Kd is at least 20 µM.

Question: And the Kd (HLA-B*18:01 [1]; [25])?
Answer: The Kd was at least 20 µM.

Question: And the Kd (HLA-A*24:03 [2]; [25])?
Answer: Its Kd is at least 20 µM.

Question: What about the Kd (HLA-A*03:01 [3]; [25]) of the same sequence?
Answer: Its Kd is at least 20 µM.

Question: What about the Kd (HLA-A*02:01 [4]; [25]) of the same sequence?
Answer: The Kd was at least 20 µM.

Question: And the Kd (HLA-B*27:03; [25])?
Answer: The Kd was at least 20 µM.

Question: And the Kd (HLA-A*02:12 [5]; [25])?
Answer: Its Kd is at least 20 µM.

Question: What about the Kd (HLA-A*23:01; [25]) of the same sequence?
Answer: The Kd was at least 20 µM.

Question: What about the Kd (HLA-B*39:01; [25]) of the same sequence?
Answer: Its Kd is at least 20 µM.

Question: What about the Kd (HLA-A*02:19 [6]; [25]) of the same sequence?
Answer: Its Kd is at least 20 µM.

Question: What about the Kd (HLA-B*51:01; [25]) of the same sequence?
Answer: The Kd was at least 20 µM.

Question: What about the Kd (HLA-A*02:11 [7]; [25]) of the same sequence?
Answer: Its Kd is at least 20 µM.

Question: And the Kd (HLA-A*02:16 [8])?
Answer: Its Kd is 0.365 µM.

Question: And the Kd (HLA-B*46:01 [9]; [25])?
Answer: The Kd was at least 20 µM.

Question: And the Kd (HLA-A*29:02; [25])?
Answer: The Kd was at least 20 µM.

Question: And the Kd (HLA-B*15:01 [10]; [25])?
Answer: Its Kd is at least 20 µM.

Question: What about the Kd (HLA-A*26:01 [11]; [25]) of the same sequence?
Answer: The Kd was at least 20 µM.

Question: What about the Kd (HLA-B*57:01; [25]) of the same sequence?
Answer: The Kd was at least 20 µM.

Question: What does the source list for VILYFMYRK?
Answer: Kd (HLA-A*69:01 [12]): ≥ 20 µM; Kd (HLA-A*02:03; [26]): ≥ 20 µM; Kd (HLA-B*18:01 [1]; [26]): ≥ 20 µM; Kd (HLA-A*24:03 [2]; [26]): ≥ 20 µM; Kd (HLA-A*03:01 [3]; [26]): 0.528 µM; Kd (HLA-A*02:01 [4]; [26]): ≥ 20 µM; Kd (HLA-B*27:03; [26]): ≥ 20 µM; Kd (HLA-A*02:12 [5]; [26]): ≥ 20 µM; Kd (HLA-A*68:02): ≥ 20 µM; Kd (HLA-A*23:01; [26]): ≥ 20 µM; Kd (HLA-B*15:17): ≥ 20 µM; Kd (HLA-B*39:01; [26]): ≥ 20 µM; Kd (HLA-A*02:19 [6]; [26]): ≥ 20 µM; Kd (HLA-B*51:01; [26]): ≥ 20 µM; Kd (HLA-A*02:11 [7]; [26]): ≥ 20 µM; Kd (HLA-B*46:01 [9]; [26]): ≥ 20 µM; Kd (HLA-A*29:02; [26]): ≥ 20 µM; Kd (HLA-B*15:01 [10]; [26]): ≥ 20 µM; Kd (HLA-A*26:01 [11]; [26]): ≥ 20 µM; Kd (HLA-B*57:01; [26]): ≥ 20 µM

Question: What does the source list for YLDMVLAFL?
Answer: Kd (HLA-A*02:50; [27]): ≤ 0.0001 µM; Kd (HLA-A*69:01 [13]; [27]): ≥ 20 µM; Kd (HLA-A*02:06): ≤ 0.001 µM; Kd (HLA-B*18:01 [14]): ≥ 20 µM; Kd (HLA-B*40:01; [27]): ≥ 20 µM; Kd (HLA-A*03:01 [15]; [27]): ≥ 20 µM; Kd (HLA-A*02:01 [16]; [27]): 0.0185 µM; Kd (HLA-A*24:02): ≥ 20 µM; Kd (HLA-A*02:12 [17]): ≤ 0.001 µM; Kd (HLA-A*01:01; [27]): ≥ 20 µM; Kd (HLA-B*08:02): ≥ 20 µM; Kd (HLA-B*44:02): ≥ 20 µM; Kd (HLA-A*02:19 [18]): ≤ 0.001 µM; Kd (HLA-A*11:01; [27]): ≥ 20 µM; Kd (HLA-A*31:01; [27]): ≥ 20 µM; Kd (HLA-A*02:11 [19]): ≤ 0.001 µM; Kd (HLA-A*02:16 [20]): ≤ 0.001 µM; Kd (HLA-B*46:01 [21]): ≥ 20 µM; Kd (HLA-B*07:02; [27]): ≥ 20 µM; Kd (HLA-B*27:05; [27]): ≥ 20 µM; Kd (HLA-B*15:01 [22]; [27]): ≥ 20 µM; Kd (HLA-A*26:01 [23]; [27]): ≥ 20 µM; Kd (HLA-B*58:01; [27]): ≥ 20 µM

Question: Which Kd (HLA-A*02:50; [28]) does the source give for LLQEKYGLI here?
Answer: Its Kd is 0.0177 µM.

Question: And the Kd (HLA-A*69:01 [13]; [28])?
Answer: The Kd was at least 20 µM.

Question: What about the Kd (HLA-A*24:03 [24]) of the same sequence?
Answer: Its Kd is at least 20 µM.

Question: And the Kd (HLA-B*40:01; [28])?
Answer: The Kd was at least 20 µM.

Question: What about the Kd (HLA-A*03:01 [15]; [28]) of the same sequence?
Answer: The Kd was at least 20 µM.

Question: And the Kd (HLA-A*02:01 [16]; [28])?
Answer: Its Kd is 1.18 µM.

Question: And the Kd (HLA-A*01:01; [28])?
Answer: The Kd was at least 20 µM.

Question: And the Kd (HLA-B*08:01)?
Answer: Its Kd is 7.89 µM.

Question: What about the Kd (HLA-A*11:01; [28]) of the same sequence?
Answer: The Kd was at least 20 µM.

Question: What about the Kd (HLA-A*31:01; [28]) of the same sequence?
Answer: The Kd was at least 20 µM.

Question: What about the Kd (HLA-B*07:02; [28]) of the same sequence?
Answer: The Kd was at least 20 µM.

Question: What about the Kd (HLA-B*27:05; [28]) of the same sequence?
Answer: The Kd was at least 20 µM.

Question: And the Kd (HLA-B*15:01 [22]; [28])?
Answer: Its Kd is at least 20 µM.

Question: What about the Kd (HLA-A*26:01 [23]; [28]) of the same sequence?
Answer: Its Kd is at least 20 µM.

Question: And the Kd (HLA-B*58:01; [28])?
Answer: Its Kd is at least 20 µM.
